{"source": "paper PMC3142614", "molecular_target": "recombinant AvrM-A Δ28 with an N-terminal hexahistidine tag (Melampsora lini (flax rust))", "assay": "SEC-MALS"}
{"substance": "recombinant AvrM-A Δ28 with an N-terminal hexahistidine tag (natural protein)", "values": [{"measurement": "stoichiometry N", "result": 2}]}
